Results on 20 sequences are retold here after the DeepSol protein solubility set.

The nature of the series: soluble on expression in E. coli; label from the status in PepcDB or PDB records.
Take “MGSDKIHHHHHHMQGIAFQDAYPDDLSHCYGCGRNNEQGHQLKSYWRGEQTIAHFMPKPFHTAIPGFVYGGLIASLIDCHGTGSASAAAQRALEQAGEQLDEPPRFVTAALNIDYLAPTPMGVELELVGEIKEVKPRKVVVEIALSADGKLCARGHMVAVKMPETMAATSA”: the “soluble on expression in E. coli” value is given as “not soluble”. Regarding “PMILGYWNVRGLTHPIRLLLEYTDSSYEEKRYAMGDAPDYDRSQWLNEKFKLGLDFPNLPYLIDGSRKITQSNAIMRYLARKHHLCGETEEERIRVDVLENQAMDTRLQLAMVCYSPDFERKKPEYLEGLPEKMKLYSEFLGKQPWFAGNKITYVDFLVYDVLDQHRIFEPKCLDAFPNLKDFVARFEGLKKISDYMKSGRFLSKPIFAKMAFWNPK”, the “soluble on expression in E. coli” value is reported as “soluble”. In the case of “MGSDKIHHHHHHMAKDIHSKAGTTLPPYFNIDPDAAMAELDQPTDTARFAEIAEGCARGRADLASRGLNEEGSKNLRLFSTWEITRYLIPVAQAHFRRVLKANPDLPQGRSETEGGAKWFTLDEVLRLRAFFAAQGSKAKNYLPYRPEGLPAKLVAVANFKGGVGKTSTAAHLAMSAALDGYKVLVIDLDSQGSMTSIFGGKIEDEWQTAFPLLARHYGEHLRVENQRRLDRGDAPQPLDESLTAAMEMTAKDVIQPTHWPNIDLIGAQLNLYWAEFQIPVWRMAARSWKLWDALTDRLEADGVLDQYDVVFIDTPPALGYLTINGLSAADILLVPMGASFLEFDSTGRFFDMLHSTFASIEEGENLAARALGRPEIGFEWDAVRAVITRYDGAQQGELAGLVQAYMGPTLSPHRQDFTALIGQAGEQVNGIYEADYRDFNRETYARGRETFDETYAAFKRLLNGVWRREELAVQEERAAS” it was “not soluble”; in that of “MGSDKIHHHHHHMEIKETYDFSSIVDLWNKNIGTVYPMNLELFKQNYINDRQRKKIMGAFNGEILIGFVIYKQWTYKSGSLKPNHKIGYINSIIVDINFRHQGIGTKLLDAAEEELINSGVKILRCGSDTYHFFPGIPLECLPSEEFFLVRGYKMQDYFYDLIGDVSKVDFKKPSIKDGFKVNVMKPEDRKGLFEFLEKSFSGRWLEEFIEFFQVGMKERDIVLIKYKTSVIGFSHIYDNKSSFIGPPIYWKALLGHNYGGLGPIGIDKTYRKQGLGRLLLYESLQILKKREVKKMVIDWTEKDIINFYGRFNFMPWKAYRKATKEVKDGKG”, “not soluble”. As for “RSLIAGYDPLILDVSHGFNISEFARIANTLDDTTYTSLTPMQLLKAMDTLEGIESLRRFAAILVGGAPLRADDLRAAKELGINVVTTYGSSETSGGCVYNGRPIPGAKVRVV”, the “soluble on expression in E. coli” value was “not soluble”. In the case of “MAWGQIAVVSPLVNIPVNTIEQSLLRQLPGCWGCKDKDSVFRYVNQEYAELLGHASPEECIGKTDFEMSSPTTECAQEFQRQDKHVIETGESLKILDIHPYPDGRWRAHIFTKTPWRDEQGNTLGTIFYGRELTDTAVIEVGYWVCRAIGTDMNHQSIFRFSNLNPKPEKLTCREQETLFLLLYGKKPQFISQVMGISTKTVEGHVARLRNKFEANSKNELIDKAMEAGYGSVVPKTLLKHQLSVVLNGER” it was “not soluble”; in that of “MKLWSGGIQRDQNADSTVAFVKRDIEAEIYLMKYEILSLIAYHLDLAQRRLITEAESKCIINSLISLLQDSPKIDPEQEDAHTAVENAVIERCGDMGRNVRLFLSRNEQVHANVLMFTIERCHSIISILLDSIKVLKGADLKGLLPGTTHFMPAMPVTAATYSNYIENSLALAIRSIDRSLADASVLPYGYGSGYGSPNSGKLKVMSEMLGIGPVLKNPMIASSLYQFTIMQISNSIAGLSITLSRIAMDLIEYYRDGYVSLSDEFTTGSSLMPNKRNPDYLELLQGMAAVSSSVAVMSAMATMNKTSGYHRDFQMLKDSYIDMLNYIEEALLRLPDLFKGLRFEITDPMMLPGSIFATGNAWEDFANTHDWKQSYANIGRKIREKQDLKRYMPEDYVDIVEMHYLEEIEKKYGEILKKWDYLIEKAEAYISE”, “soluble”; in that of “GSDGDALLKPCKLGDMQCLSSATEQFLEKTSKGIPQYDIWPIDPLVVTSLDVIAPSDAGIVIRFKNLNITGLKNQQISDFQMDTKAKTVLLKTKADLHIVGDIVIELTEQSKSFTGLYTADTNVIGAVRYGYNLKNDDNGVQHFEVQPETFTCESIGEPKITLSSDLSSALEKDSGNNSLEPDMEPLKTLRQAAICKIAEACYISVVHNIRASAKILPASSFFENLN”, “soluble”. For the sequence “MGSDKIHHHHHHMLNRLRAFRERGWREVDAPTYAQAWQRFGGSVATHPLVVEQLAEMAGIPVRYLGWESAGELVAAIPTWGRHLALSKDVLKRRGKKGLYDLGNAELILPVAGDARIALRHAGRYLSALHERNIVTLRPQTEQLAFARAPEDFSKKFRYNQRREVRLVEEAGGQVRQADSFAPAEFAAIYLELFQRRWGFPATGAERMAEVFERLRELLRGSVLLLNDQPIAVQVLYRAEAPGWLSVEYINGGVDPQTREFSPGSVLSYLNTQAAWEDARALGKPLRYSFGRADREYKDRWCHPSPVFQV”, the “soluble on expression in E. coli” value is “not soluble”. Turning to “MHHHHHHSENTFIFPATFMWGTSTSSYQIEGGTDEGGRTPSIWDTFCQIPGKVIGGDCGDVACDHFHHFKEDVQLMKQLGFLHYRFSVAWPRIMPAAGIINEEGLLFYEHLLDEIELAGLIPMLTLYHWDLPQWIEDEGGWTQRETIQHFKTYASVIMDRFGERINWWNTINEPYCASILGYGTGEHAPGHENWREAFTAAHHILMCHGIASNLHKEKGLTGKIGITLNMEHVDAASERPEDVAAAIRRDGFINRWFAEPLFNGKYPEDMVEWYGTYLNGLDFVQPGDMELIQQPGDFLGINYYTRSIIRSTNDASLLQVEQVHMEEPVTDMGWEIHPESFYKLLTRIEKDFSKGLPILITENGAAMRDELVNGQIEDTGRQRYIEEHLKACHRFIEEGGQLKGYFVWSFLDNFEWAWGYSKRFGIVHINYETQERTPKQSALWFKQMMAKNGF”, the “soluble on expression in E. coli” value is given as “soluble”.

Consider “MSPTTDRIAVVGGSISGLTAALMLRDAGVDVDVYERSPQPLSGFGTGIVVQPELVHYLLEQGVELDSISVPSSSMEYVDALTGERVGSVPADWRFTSYDSIYGGLYELFGPERYHTSKCLVGLSQDSETVQMRFSDGTKAEANWVIGADGGASVVRKRLLGIEPTYAGYVTWRGVLQPGEVADDVWNYFNDKFTYGLLDDGHLIAYPIPGRENAESPRLNFQWYWNVAEGPDLDELMTDVRGIRLPTSVHNNSLNPHNLRQFHSKGESLFKPFRDLVLNASSPFVTVVADATVDRMVHGRVLLIGDAAVTPRPHAAAGGAKASDDARTLAEVFTKNHDLRGSLQSWETRQLQQGHAYLNKVKKMASRLQHGGSFEPGNPAFAFGLPKVDEPSVVTNS”, for which the “soluble on expression in E. coli” value was “soluble”.

For the sequence “MPQNAQEYYEKVKKFTKKKDGAIRAIEDTKKAMEKKAATKSAKAGRKLQASRKKHWYDRFRWFVSSDGFLVVGGRDADTNEEIFKKYMEKRDIVFHTQTPGAPLTVVKTGGKEVPDSTLQEVSQFAVSYSSLWKAGQFSGDCYWIKSEQVTKTPESGEYLKKGAFVIRGERNYFKDVPLGIAVGLELKGETRIIGGPASAVRKHGDYILEIIPGKFNQNDISKKIYRIYADELNDPRFVKQIASPDQIAMMIPAGESDLRNQKPEKKGQGFGPEGEGYETPEMEAGFEDLKGEIDEESGENAGEEFADEEFAEEIGEGSEVKVKAEAREGNEEIIEIRGVKKE”, the “soluble on expression in E. coli” value is on record as “not soluble”. For “MSSTQTDYRLSDDLLGPVLAILDAYIDPYLAKGLVSAGCVNKLAIEGKRLQLGLVYPYPCMTQYRDTVMALTNKLAVLDAIDEVECEIDFQPKVYSAIASIAPIANVKQVIAVASGKGGVGKSTTAVNLALALAAEGAQVGILDADIYGPSVPLMLGIPNFRPVSPDGKHMTAASAYGIAAQSIGFMLSGDEAAVWRGPMAAGALAQLLNETQWPELDYLVVDMPPGTGDIQLTLSQKVPVSGAVIVTTPQDIALADAKKGITMFQKVNIPVLGIVENMSFHLCPECGHKEHPFGTHGGSKMAERYQVPLLGALPLHINIREAMDVGAPTVVAEPDSEVAALYREIARKVGAELALKQSQKTVSISVSDDELEHHHHHH”, the “soluble on expression in E. coli” value is on record as “soluble”. In the case of “MSLTYQFMQPYTFKNGVTLKNRMVMSPTTTMSSFYDGHVTNDEIKFYDVRAGGPGMIIGEVANVIASGKGFEGELSIADDGDIDGLSRLANAMKRGGTKAILQIFHAGRKSNDSILRGEQPVSASAVKAVFPPDSQTPRELTAAEIDEIIVAFGEATRRAIAAGFDGVELHGANTYLLQQFFSPNSNRRTDKWGGDRDARMGFAKAVIASSQQAIDTYADRPFLLGYRISPEEIETPGIRLADSLAFVDMLGDSTVDYVHTSMGSAHRTSLNDKTDHEPILKQLVQQLAGRKPLIGVGSVEKPADAEAVLEMGADLVAMGREFIREPQWVEKIVDGDEASIRYQISPSELDELAIPRAMQDYLKGAFYSVMHFTTDPSVAVDYQNEGHHHHHH” it was “soluble”. In the case of “QVQLQESGGGLVQPGGSLRLSCAASGFAFSGYAMSWVRQAPGKGLEWVSGINRDGSTSYTAPVKGRFTISRDNAKNILYLQMNSLRPEDTAVYYCAKWLGGRDWYDRGQGTQVTVS” it was “soluble”; in that of “MSLGYTTAKKEVSVVIEDGINEIINKTERFVSLKLESDISLASSIVDSISLRISDEQYINDIINGNAIKKAFLSTGFGFDSNGKVIENDPNWEPEDDYDPRSRGWYQEAKKNKRIFITEPYLDTEGKNFLVSISSPVADTMNNFIGAMYFDVDLSRIQKNVDDINLFEAGYVFITSNTGKVIIHSNTDELGKNVKDIYNGFRLDKGKVVLSVNGVNKWLYTSPILGGDWFIIAVIDESIAMQSINKMKYEEGHHHHHH”, “soluble”; in that of “MKGEGVIVGILNKNFSLSKGDLDVVSLGEILVDMISTEEVNSLSQSREYTRHFGGSPANIAVNLSRLGKKVALISRLGADAFGNYLLDVLKGEQIITDGIQQDKERRTTIVYVSKSTRTPDWLPYREADMYLQEDDIIFELIKRSKVFHLSTFILSRKPARDTAIKAFNYAREQGKIVCFDPCYRKVLWPEGDDGAGVVEEIISRADFVKPSLDDARHLFGPDSPENYVKRYLELGVKAVILTLGEEGVIASDGEEIIRIPAFSEDAVDVTGAGDAFWSGFICGLLDGYTVKRSIKLGNGVAAFKIRGVGALSPVPSKEDIIKEYNI”, “soluble”. With “MGSDKIHHHHHHMTEFEVHIDLGGSTFPVGLARCNRVRGTERILFEYDAEWLASPDRFSLEPALALTRGAFAPPAGMTSFGSIGDSAPDTWGRRLMQRAERRRAAREGRSVRTLAESDYLLGVSDETRLGALRFRRVGETSFQAPIQAGVPALVELGRLLQVTERVLRDEETDEDLQLIFAPGSSLGGARPKASVIDQYGHLAIAKFPKDTDEYSVETWEEIALRLANQAGIVTPQHELVDVGGRAVMLSRRFDRDGTIRIPFLSAMAMMGARDGEPGSYPEMVDALTAHGAQGKTDAHALYRRVVFSVMISNVDDHLRNHGFLWLGNAGWSLAPAYDLNPVPSDLKARVLTTNIDLDESTCSVDLLEAASGYFGLTLANARRIIKDVASVTATWRNTARAVGARPAEIERMASAFEHDDLQHGLAL”, the “soluble on expression in E. coli” value was “not soluble”. With “KEDYDRRSGKVSEPAPQATEEEDKVEVEPEDNGISSVADMSDGKESIAPKGHAVKPDEGAHSAKKTYKIQILSSTTKLKNGDKRLKGYKVVIEQRGGRFFYLTGAVSSEDEARHLRKKVRKSFPDAYIVVYEAGKRVREIY”, the “soluble on expression in E. coli” value was “not soluble”. On to “NVLPSELPAGVDWRSRGCVTPVKDQRDCGSCWAFSTTGALEGAHCAKTGKLVSLSEQELMDCSRAEGNQSCSGGEMNDAFQYVLDSGGICSEDAYPYLARDEECRAQSCEKVVKILGFKDVPRRSEAAMKAALAKSPVSIAIEADQMPFQFYHEGVFDASCGTDLDHGVLLVGYGTDKESKKDFWIMKNSWGTGWGRDGYMYMAMHKGEEGQCGLLLDASFPVM”, for which the “soluble on expression in E. coli” value is recorded as “soluble”.
